Biological target: Vsg-GFP fusion protein (D. melanogaster Vsg, transiently expressed in U2OS cells) (Drosophila melanogaster)
Experiment: immunostaining of cells or tissue

TcdA1 (TcA subunit of the Photorhabdus luminescens Tc toxin pTc) (from UniProt Q9RN43 1-2516) (natural protein)
percent of TcdA1-bound cells that are GFP positive: 96%

From publication PMC9631961
